According to FireProtDB (doi:10.1074/jbc.271.51.32729):

Conditions: Escherichia coli (strain K12), Thermal, CD, reversible: yes, whole UniProt chain shown

B1: Ribonuclease HI wild type, P0A7Y4 (protein)
chain: MLKQVEIFTDGSCLGNPGPGGYGAILRYRGREKTFSAGYTRTTNNRMELMAAIVALEALKEHCEVILSTDSQYVRQGITQWIHNWKKRGWKTADKKPVKNVDLWQRLDAALGQHQIKWEWVKGHAGHPENERCDELARAAAMNPTLEDTGYQVEV
Tm (pH 3, glycine-HCl 10 mM): 50 °C
unfolding enthalpy (van 't Hoff) (pH 3, glycine-HCl 10 mM): 95.1 kcal/mol
Tm (pH 9, glycine-NaOH 50 mM): 47 °C
